Test results from patent US20240132578A1.

Tests used:
Experiment in all cases: cell-based or functional assay
[1] = target: HIV-1 Env of pseudovirus MGRM-F1-014 (HIV-1)
[2] = target: HIV-1 envelope glycoprotein (Env) of isolate MG RM-AG-003 (HIV-1)
[3] = target: HIV-1 Env of pseudovirus MGRM-D-011 (HIV-1)
[4] = target: HIV-1 Env of isolate MGRM-F1-008 (HIV-1)
[5] = target: HIV-1 Env of isolate MGRM-F1-020 (HIV-1)
[6] = target: HIV-1 Env of isolate MGRM-AE-007 (subtype AE) (HIV-1)
[7] = target: HIV-1 Env of isolate 92UG114 (pseudovirus) (HIV-1)
[8] = target: HIV-1 Env of isolate MGRM-A-012 (subtype A) (HIV-1)
[9] = target: HIV-1 Env of isolate MGRM-D-028 (HIV-1)
[10] = target: HIV-1 Env of isolate 92UG046 (pseudovirus) (HIV-1)
[11] = target: HIV-1 Env of isolate MGRM-D-022 (pseudovirus) (HIV-1)
[12] = target: HIV-1 Env of pseudovirus isolate MGRM-C-025 (clade C) (HIV-1)
[13] = target: HIV-1 Env of isolate CAAN.A2 (HIV-1)
[14] = target: HIV-1 Env of pseudovirus isolate MGRM-C-013 (clade C) (HIV-1)
[15] = target: HIV-1 Env of isolate MGRM-F1-013 (HIV-1)
[16] = target: HIV-1 JR-CSF Env S393A (HIV-1 (isolate JR-CSF)) (UniProt P20871)
[17] = target: HIV-1 Env of isolate MGRM-C-025 (subtype C), on pseudovirus (HIV-1)
[18] = target: HIV-1 Env of isolate MGRM-G-028 (subtype G) (HIV-1)
[19] = target: HIV-1 Env of isolate MGRM-D-003 (HIV-1)
[20] = target: HIV-1 Env of isolate MGRM-G-009 (subtype G) (HIV-1)
[21] = target: HIV-1 Env of isolate MG RM-A-009 (pseudovirus) (HIV-1)
[22] = target: HIV-1 Env of isolate MG RM-A-014 (pseudovirus) (HIV-1)
[23] = target: HIV-1 Env of isolate 92UG046 (HIV-1)
[24] = target: HIV-1 Env of isolate MGRM-C-023 (subtype C), on pseudovirus (HIV-1)
[25] = target: HIV-1 Env of pseudovirus MGRM-G-015 (HIV-1)
[26] = target: HIV-1 envelope glycoprotein (Env) of isolate MGRM-C-025 (HIV-1)
[27] = target: HIV-1 Env of isolate TRO.11 (Acute), clade B (HIV-1)
[28] = target: HIV-1 MGRM-AG-012 Env (pseudovirus) (HIV-1)
[29] = target: HIV-1 92RW024 envelope glycoprotein (Env) on pseudovirus (HIV-1 (clade A))
[30] = target: HIV-1 Env of pseudovirus MGRM-G-027 (HIV-1)
[31] = target: HIV-1 MGRM-AG-011 Env (pseudovirus) (HIV-1)
[32] = target: HIV-1 Env of isolate MGRM-F1-022 (pseudovirus) (HIV-1)
[33] = target: HIV-1 Env of isolate MGRM-F1-013 (pseudovirus) (HIV-1)
[34] = target: HIV-1 JR-CSF Env S334A (HIV-1 isolate JR-CSF) (UniProt P20871)
[35] = target: HIV-1 envelope glycoprotein (Env) of isolate 94UG103, subtype A (HIV-1)
[36] = target: HIV-1 envelope glycoprotein (Env) of isolate MG RM-A-006, subtype A (HIV-1)
[37] = target: HIV-1 envelope glycoprotein (Env) of isolate SC422661.8, on pseudovirus (HIV-1)
[38] = target: HIV-1 envelope glycoprotein (Env) of isolate MGRM-Chronic-B-002, on pseudovirus (HIV-1)
[39] = target: HIV-1 92UG005 envelope protein (Env) on pseudovirus (HIV-1)

Chain of 4980_N08 (PGT-143) (antibody) (VH): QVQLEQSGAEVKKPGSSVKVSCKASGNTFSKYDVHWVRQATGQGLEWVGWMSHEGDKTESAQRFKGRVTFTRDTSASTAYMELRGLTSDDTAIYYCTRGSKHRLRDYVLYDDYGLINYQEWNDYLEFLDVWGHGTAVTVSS
Chain of 4980_N08 (PGT-143) (antibody) (VL): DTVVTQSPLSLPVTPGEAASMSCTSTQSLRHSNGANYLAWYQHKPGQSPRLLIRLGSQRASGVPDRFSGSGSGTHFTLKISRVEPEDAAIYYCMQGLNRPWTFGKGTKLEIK
Chain of PGT-144 (4970_K22) (antibody) (VH): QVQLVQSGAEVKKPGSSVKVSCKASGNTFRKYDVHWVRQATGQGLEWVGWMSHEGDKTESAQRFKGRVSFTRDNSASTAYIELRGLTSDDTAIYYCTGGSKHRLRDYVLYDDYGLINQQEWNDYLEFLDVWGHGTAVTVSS
Chain of PGT-144 (4970_K22) (antibody) (VL): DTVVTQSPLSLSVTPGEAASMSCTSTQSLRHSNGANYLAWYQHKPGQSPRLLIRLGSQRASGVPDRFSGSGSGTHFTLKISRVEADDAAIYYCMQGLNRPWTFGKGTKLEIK
Chain of 4993_K13 (PGT-141) (antibody) (VH): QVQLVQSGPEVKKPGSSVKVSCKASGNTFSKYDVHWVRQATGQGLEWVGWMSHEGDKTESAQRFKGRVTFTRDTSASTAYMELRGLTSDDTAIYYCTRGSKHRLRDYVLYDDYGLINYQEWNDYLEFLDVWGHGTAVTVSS
Chain of 4993_K13 (PGT-141) (antibody) (VL): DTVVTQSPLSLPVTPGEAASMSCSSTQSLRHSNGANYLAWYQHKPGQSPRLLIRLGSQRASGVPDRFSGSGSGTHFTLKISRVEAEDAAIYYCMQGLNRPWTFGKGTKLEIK

With PGT-143 (4980_N08) (antibody) the IC50, pseudovirus neutralization [1] was 0.001 µg/mL, the IC50 [2] was > 50 µg/mL and the IC50, pseudovirus neutralization [3] was > 50 µg/mL.
5114_A19 (PGT-128) (antibody) was tested, and the IC50 (µg/mL), pseudovirus neutralization [4] was > 50 µg/mL, the IC50 (µg/mL), pseudovirus neutralization [5] was 0.355 µg/mL and the IC50, pseudovirus neutralization [6] was > 50 µg/mL. For the same substance, the IC50 (µg/mL), pseudovirus neutralization [7] was 0.083 µg/mL, the IC50, pseudovirus neutralization [8] was 0.025 µg/mL and the IC50 (µg/mL), pseudovirus neutralization [9] was > 50 µg/mL. The IC50 (µg/mL), pseudovirus neutralization [10] was > 50 µg/mL, the IC50 (µg/mL), pseudovirus neutralization [11] was > 50 µg/mL and the IC50, pseudovirus neutralization [12] was 10.5 µg/mL. For the same substance, the IC50 (µg/mL), pseudovirus neutralization [13] was 1.48 µg/mL, the IC50, pseudovirus neutralization [14] was > 50 µg/mL and the IC50 (µg/mL), pseudovirus neutralization [15] was 12.7 µg/mL. The Fold IC50 increase relative to wild-type (pseudovirus neutralization) [16] was 1.4 fold.
PGT-144 (4970_K22) (antibody) was tested, and the IC50, pseudovirus neutralization [1] was 0.014 µg/mL, the IC50 [2] was > 50 µg/mL and the IC50, pseudovirus neutralization [3] was > 50 µg/mL.
Work on VRC01 (antibody) yielded an IC50, single-round pseudovirus neutralization [17] of 2.36 µg/mL, an IC50 (µg/mL), pseudovirus neutralization [18] of 0.164 µg/mL and an IC50, pseudovirus neutralization [1] of 0.056 µg/mL. It also gave an IC50 [2] of 0.043 µg/mL, an IC50 (µg/mL), pseudovirus neutralization [19] of 2.06 µg/mL and an IC50 (µg/mL), pseudovirus neutralization [20] of 0.073 µg/mL. The IC50 (µg/mL), single-round pseudovirus neutralization [21] was 0.118 µg/mL, the IC50, pseudovirus neutralization [3] was 0.075 µg/mL and the IC50 (µg/mL), single-round pseudovirus neutralization [22] was 0.135 µg/mL. The IC50 (µg/mL), pseudovirus neutralization [23] was 12.7 µg/mL and the IC50, single-round pseudovirus neutralization [24] was 0.077 µg/mL.
In the case of 4980_N08 (PGT-143) (antibody), the IC50, single-round pseudovirus neutralization [17] is reported as 0.336 µg/mL, the IC50 (µg/mL), pseudovirus neutralization [18] is reported as 43 µg/mL and the IC50 (µg/mL), pseudovirus neutralization [19] is reported as > 50 µg/mL. The IC50 (µg/mL), pseudovirus neutralization [20] was 2.97 µg/mL, the IC50 (µg/mL), single-round pseudovirus neutralization [21] was 0.05 µg/mL and the IC50 (µg/mL), single-round pseudovirus neutralization [22] was 1.07 µg/mL. For the same substance, the IC50 (µg/mL), pseudovirus neutralization [23] was > 50 µg/mL and the IC50, single-round pseudovirus neutralization [24] was 0.148 µg/mL.
With 1496_C09 (PG9) (TCN-109) (antibody) the IC50 (µg/mL), pseudovirus neutralization [18] was 0.891 µg/mL, the IC50 (µg/ml), pseudovirus neutralization [25] was 1.51 µg/mL and the IC50 (µg/mL), pseudovirus neutralization [5] was 6.4 µg/mL. For the same substance, the IC50 (µg/ml), pseudovirus neutralization [26] was 0.17 µg/mL, the IC50 (µg/mL), pseudovirus neutralization [20] was 10.7 µg/mL and the IC50 (µg/ml), pseudovirus neutralization [27] was 5.43 µg/mL. For the same substance, the IC50 (µg/ml), pseudovirus neutralization [28] was 1.37 µg/mL, the IC50 (µg/ml), pseudovirus neutralization [29] was 0.18 µg/mL and the IC50 (µg/ml), pseudovirus neutralization [30] was 0.01 µg/mL. For the same substance, the IC50 (µg/ml), pseudovirus neutralization [31] was 0.01 µg/mL.
With 4993_K13 (PGT-141) (antibody) the IC50, single-round pseudovirus neutralization [17] was 0.247 µg/mL, the IC50 (µg/mL), pseudovirus neutralization [18] was 24.9 µg/mL and the IC50 (µg/mL), pseudovirus neutralization [19] was > 50 µg/mL. It also gave an IC50 (µg/mL), pseudovirus neutralization [20] of 1.89 µg/mL, an IC50 (µg/mL), single-round pseudovirus neutralization [21] of 0.029 µg/mL and an IC50 (µg/mL), single-round pseudovirus neutralization [22] of 0.628 µg/mL. The IC50 (µg/mL), pseudovirus neutralization [23] was > 50 µg/mL and the IC50, single-round pseudovirus neutralization [24] was 0.153 µg/mL.
PGV04 (antibody) showed an IC50 (µg/mL), pseudovirus neutralization [18] of 0.352 µg/mL, an IC50 (µg/mL), pseudovirus neutralization [5] of 5.99 µg/mL and an IC50 (µg/mL), pseudovirus neutralization [20] of 0.043 µg/mL.
In the case of 5136_H01 (PGT-131) (antibody), the IC50 (µg/mL), pseudovirus neutralization [4] is reported as 2.74 µg/mL, the IC50 (µg/mL), pseudovirus neutralization [5] is reported as > 50 µg/mL and the IC50, pseudovirus neutralization [6] is reported as 0.026 µg/mL. The IC50 (µg/mL), pseudovirus neutralization [7] was > 50 µg/mL, the IC50, pseudovirus neutralization [8] was > 50 µg/mL and the IC50 (µg/mL), pseudovirus neutralization [9] was > 50 µg/mL. The IC50 (µg/mL), pseudovirus neutralization [10] was > 50 µg/mL, the IC50 (µg/mL), pseudovirus neutralization [11] was > 50 µg/mL and the IC50, pseudovirus neutralization [12] was > 50 µg/mL. For the same substance, the IC50 (µg/mL), pseudovirus neutralization [13] was > 50 µg/mL, the IC50, pseudovirus neutralization [14] was > 50 µg/mL and the IC50 (µg/mL), pseudovirus neutralization [15] was > 50 µg/mL. The Fold IC50 increase relative to wild-type (pseudovirus neutralization) [16] was 1.1 fold.
With 5145_B14 (PGT-127) (antibody) the IC50 (µg/mL), pseudovirus neutralization [32] was > 50 µg/mL, the IC50 (µg/mL), pseudovirus neutralization [33] was > 50 µg/mL and the Fold IC50 increase relative to wild-type [34] was > 500 fold. The IC50, pseudovirus neutralization [35] was 0.017 µg/mL, the IC50, pseudovirus neutralization [36] was > 50 µg/mL and the IC50, pseudovirus neutralization [37] was 36.7 µg/mL. For the same substance, the IC50, pseudovirus neutralization [38] was 0.279 µg/mL and the Fold IC50 increase relative to wild-type (pseudovirus neutralization) [16] was 1.2 fold.
For 4838_L06 (PGT-121) (antibody), the IC50 (µg/mL), pseudovirus neutralization [32] was 0.104 µg/mL, the IC50 (ug/mL), pseudovirus neutralization [39] was > 10 µg/mL and the IC50 (µg/mL), pseudovirus neutralization [33] was 0.083 µg/mL. It also gave an IC50, pseudovirus neutralization [35] of 2.52 µg/mL, an IC50, pseudovirus neutralization [36] of 0.396 µg/mL and an IC50, pseudovirus neutralization [37] of 0.098 µg/mL. It also gave an IC50, pseudovirus neutralization [38] of 0.386 µg/mL.
